Laboratory results reported in patent US20220372155A1 (LYVGEN BIOPHARMA, published 2022).
Blank lines part the entries; values can stand above or below the binder they belong to.

Assays:
[1] = molecular target: T1, Ly090 (human CD40 ECD protein with His tag) (human, UniProt P25942 21-193); assay: bridging ELISA, coated CD40 ECD-His, soluble PD-1 ECD-mFc
T1 construct: extracellular domain; also called human CD40 ECD protein (His tag); recombinant human CD40; not shown: His tag
Protocol: (§1) Briefly, human CD40 ECD protein (His tag) was diluted and coated onto an ELISA plate with a volume of […] by incubation at 4° C. overnight. […] After 1-hour incubation at room temperature, HRP-conjugated anti-Mouse IgG (H+L) antibody was added into the plate at 100 μL/well. The plate was incubated for 1 hour at room temperature followed by washing. TMB substrate solution was added at 100 μL/well and the color development was stopped by adding 100 uL/well Stop Solution (2N H2SO4). Absorbance at 450 nm and 620 nm was read by Tecan F200 Pro plate reader. GraphPad 7.0, “[Agonist] vs. response—Variable slope (four parameters)” was used to plot the binding data and calculate binding EC50 values.

[2] = molecular target: T2, Human PD-1-ECD protein (mouse IgG2a Fc tag) (human, UniProt Q15116 25-170); assay: as above
T2 construct: extracellular domain; also called soluble human recombinant PD-1; not shown: mouse IgG2a Fc tag
Protocol: as §1

[3] = molecular target: T3, human PD-1 expressed on CHO cells (human, UniProt Q15116 25-288); assay: FACS, CHO cells
T3 construct: whole, on cells; also used for human PD-1 on Jurkat reporter cells; also called Jurkat/NFkB-Luci/PD-1 cells

[4] = molecular target: T4, human CD40 expressed on CHO cells (human, UniProt P25942 21-277); assay: FACS, CHO cells
T4 construct: whole, on cells; also used for the reporter cells over-expressing human CD40; also called cellular CD40; CHO-CD40 cells

[5] = molecular target: T5, Human CD40 ECD protein (mouse IgG2a Fc tag) (human, UniProt P25942 21-193); assay: bridging ELISA, coated B7H3-His, soluble CD40-msFc
T5 construct: extracellular domain; also called Human CD40-msFc; human recombinant CD40; not shown: mouse IgG2a Fc tag
Protocol: Anti-B7H3/CD40 bi-specific antibodies were analyzed by ELISA for their simultaneous binding to recombinant human B7H3 and human CD40. Briefly, Human B7H3 CD protein (His-tag) was diluted and coated onto an ELISA plate with a volume of […] by incubation at 4° C. overnight. The next day, the plate was blocked with PBST-BSA buffer, then serially diluted samples of anti-B7H3/CD40 bi-specific antibodies were pipetted into appropriate wells at 50 μL/well, and the plate was incubated for 1 h followed by washing. Human CD40-msFc antibody was added into the plate at 50 μL/well. After 1-hour incubation at room temperature, […] anti-Mouse IgG (H+L) antibody was added into the plate at 100 μL/well. The plate was incubated for 1 hour at room temperature followed by washing. TMB substrate solution was added at 100 p L/well and the color development was stopped by adding 100 uUwell Stop Solution (2N H2SO4). Absorbance at 450 nm and 620 nm was read by Tecan F200 Pro plate reader. GraphPad 7.0, “[Agonist] vs. response—Variable slope (four parameters)” was used to plot the binding data and calculate binding EC50 values.

T4 sequence (P25942 21-277): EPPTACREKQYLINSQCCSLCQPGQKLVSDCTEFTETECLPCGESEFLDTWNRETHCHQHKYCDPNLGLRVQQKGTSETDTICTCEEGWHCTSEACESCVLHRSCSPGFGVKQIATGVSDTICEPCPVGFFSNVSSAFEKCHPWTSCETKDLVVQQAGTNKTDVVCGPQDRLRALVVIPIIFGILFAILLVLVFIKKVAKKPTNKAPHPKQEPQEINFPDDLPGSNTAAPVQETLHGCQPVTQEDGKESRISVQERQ
T1 sequence (P25942 21-193): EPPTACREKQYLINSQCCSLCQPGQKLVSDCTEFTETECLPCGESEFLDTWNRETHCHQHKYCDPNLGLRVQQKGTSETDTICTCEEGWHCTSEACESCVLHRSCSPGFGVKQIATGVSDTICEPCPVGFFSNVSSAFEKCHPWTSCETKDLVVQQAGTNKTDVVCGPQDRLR
T3 sequence (Q15116 25-288): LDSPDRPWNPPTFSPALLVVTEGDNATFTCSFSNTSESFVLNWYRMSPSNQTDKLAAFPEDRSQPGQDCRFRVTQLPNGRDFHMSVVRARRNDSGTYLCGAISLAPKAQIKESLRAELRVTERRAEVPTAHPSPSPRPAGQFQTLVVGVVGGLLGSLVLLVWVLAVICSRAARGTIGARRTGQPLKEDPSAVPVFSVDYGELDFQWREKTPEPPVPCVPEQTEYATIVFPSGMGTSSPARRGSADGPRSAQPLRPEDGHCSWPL
T2 sequence (Q15116 25-170): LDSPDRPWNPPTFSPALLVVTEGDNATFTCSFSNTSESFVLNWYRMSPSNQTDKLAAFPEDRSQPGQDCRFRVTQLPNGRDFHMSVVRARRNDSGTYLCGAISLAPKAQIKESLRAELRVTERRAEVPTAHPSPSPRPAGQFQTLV
T5 sequence (P25942 21-193): as the sequence (P25942 21-193) above

B3: Ly517 (bispecific antibody, human IgG1, kappa)
heavy: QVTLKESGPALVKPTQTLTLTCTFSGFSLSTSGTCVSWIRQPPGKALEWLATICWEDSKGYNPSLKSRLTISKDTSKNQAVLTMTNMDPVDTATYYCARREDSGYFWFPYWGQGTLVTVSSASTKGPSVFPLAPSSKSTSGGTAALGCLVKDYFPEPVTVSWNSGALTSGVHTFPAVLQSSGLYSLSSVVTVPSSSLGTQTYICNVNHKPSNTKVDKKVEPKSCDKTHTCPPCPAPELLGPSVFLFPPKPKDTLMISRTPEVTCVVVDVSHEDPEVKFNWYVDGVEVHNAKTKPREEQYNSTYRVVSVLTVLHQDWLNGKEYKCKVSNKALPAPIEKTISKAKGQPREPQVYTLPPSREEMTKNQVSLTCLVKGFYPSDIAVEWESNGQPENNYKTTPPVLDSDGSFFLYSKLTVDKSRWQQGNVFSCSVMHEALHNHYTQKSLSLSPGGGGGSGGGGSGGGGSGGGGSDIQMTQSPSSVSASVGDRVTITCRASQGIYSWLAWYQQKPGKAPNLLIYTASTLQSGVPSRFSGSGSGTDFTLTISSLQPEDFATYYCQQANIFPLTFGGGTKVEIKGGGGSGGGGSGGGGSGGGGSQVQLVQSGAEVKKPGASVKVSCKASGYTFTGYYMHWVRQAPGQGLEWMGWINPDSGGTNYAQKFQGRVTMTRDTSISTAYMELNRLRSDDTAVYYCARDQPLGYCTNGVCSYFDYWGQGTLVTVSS
light: NIQMTQSPSSLSASVGDRVTITCKAGQNVNNYLAWYQQKPGKAPKVLIFNANSLQTGVPSRFSGSGSGTDFTLTISSLQPEDFATYYCQQYNSWPTFGGGTKVEIKRTVAAPSVFIFPPSDEQLKSGTASVVCLLNNFYPREAKVQWKVDNALQSGNSQESVTEQDSKDSTYSLSSTLTLSKADYEKHKVYACEVTHQGLSSPVTKSFNRGEC
notes: Ly516 HC (IgG1 mutated Fc)-Ly253 scFv VL-VH + Ly516 LC
binding result [1]: binds | binding result [2]: binds | binding result [3]: binds | binding result [4]: binds

B6: Ly518 (bispecific antibody, human IgG1, kappa)
heavy: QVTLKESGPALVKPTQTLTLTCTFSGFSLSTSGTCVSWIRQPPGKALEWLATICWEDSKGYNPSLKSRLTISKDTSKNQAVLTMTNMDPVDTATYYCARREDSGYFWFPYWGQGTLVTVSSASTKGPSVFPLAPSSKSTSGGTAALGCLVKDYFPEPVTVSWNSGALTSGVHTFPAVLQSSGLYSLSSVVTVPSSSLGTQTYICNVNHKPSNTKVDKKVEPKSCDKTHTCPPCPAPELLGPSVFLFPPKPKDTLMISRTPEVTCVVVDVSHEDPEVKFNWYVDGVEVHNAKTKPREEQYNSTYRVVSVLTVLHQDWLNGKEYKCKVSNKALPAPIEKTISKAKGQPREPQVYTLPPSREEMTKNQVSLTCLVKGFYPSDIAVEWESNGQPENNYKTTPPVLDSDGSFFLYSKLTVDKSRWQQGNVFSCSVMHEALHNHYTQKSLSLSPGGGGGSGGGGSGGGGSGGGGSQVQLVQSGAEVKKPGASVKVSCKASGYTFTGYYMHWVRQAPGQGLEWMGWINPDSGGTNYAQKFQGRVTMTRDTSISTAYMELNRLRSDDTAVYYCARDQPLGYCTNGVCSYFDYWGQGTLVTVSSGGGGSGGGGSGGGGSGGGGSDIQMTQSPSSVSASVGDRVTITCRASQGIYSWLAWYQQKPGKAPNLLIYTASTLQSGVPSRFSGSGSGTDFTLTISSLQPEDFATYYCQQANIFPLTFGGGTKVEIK
light: B3 light
notes: Ly516 HC (IgG1 mutated Fc)-Ly253 scFv VH-VL + Ly516 LC
binding result [1]: binds | binding result [2]: binds | binding result [3]: binds | binding result [4]: binds

B8: Ly617 (bispecific antibody, human IgG1, kappa)
heavy: QVQLQQPGAELVKPGASVKLSCKASGYTFTSYWMHWVKQRPGQGLEWIGMIHPNSGGTNYNEKFKGKGTLTVDKSSSTAYMQLSSLTSDDSAVYYCVTSQATWFAYWGQGTLVTVSAASTKGPSVFPLAPSSKSTSGGTAALGCLVKDYFPEPVTVSWNSGALTSGVHTFPAVLQSSGLYSLSSVVTVPSSSLGTQTYICNVNHKPSNTKVDKKVEPKSCDKTHTCPPCPAPELLGPSVFLFPPKPKDTLMISRTPEVTCVVVDVSHEDPEVKFNWYVDGVEVHNAKTKPREEQYNSTYRVVSVLTVLHQDWLNGKEYKCKVSNKALPAPIEKTISKAKGQPREPQVYTLPPSREEMTKNQVSLTCLVKGFYPSDIAVEWESNGQPENNYKTTPPVLDSDGSFFLYSKLTVDKSRWQQGNVFSCSVMHEALHNHYTQKSLSLSPGGGGGSGGGGSGGGGSGGGGSEVQLVESGGGLVQPGGSLRLSCAASGFTFTNYGLHWVRQAPGKGLEWVSSISPSGGVTYYRDSVKGRFTISRDNSKNTLYLQMNSLRAEDTAVYYCAKPFLGWGGANWIAHWGQGTLVTVSSGGGGSGGGGSGGGGSGGGGSDIQMTQSPSSLSASVGDRVTITCLASEDISNDLAWYQQKPGKAPKLLIYFVDRLLDGVPSRFSGSGSGTDFTLTISSLQPEDFATYYCQQSYKYPPTFGQGTKLEIK
light: ENVLTQSPAIMSVSPGEKVTMTCRASSSVSSSYLHWYQQKSGASPKFWIYSTSNLASGVPARFSGSGSGTSYSLTISSVEAEDAATYYCQHYSGYPLTFGAGTKLELRRTVAAPSVFIFPPSDEQLKSGTASVVCLLNNFYPREAKVQWKVDNALQSGNSQESVTEQDSKDSTYSLSSTLTLSKADYEKHKVYACEVTHQGLSSPVTKSFNRGEC
notes: Ly387 HC (IgG1 mutated Fc)-TM559 scFv VH-VL + Ly387 LC
binding result [5]: binds | binding result [4]: binds

Next, values leading:

binding result [1]: binds | binding result [2]: binds | binding result [3]: binds | binding result [4]: binds
B1: Ly519 (bispecific antibody, human IgG1, kappa)
heavy: QVTLKESGPALVKPTQTLTLTCTFSGFSLSTSGTCVSWIRQPPGKALEWLATICWEDSKGYNPSLKSRLTISKDTSKNQAVLTMTNMDPVDTATYYCARREDSGYFWFPYWGQGTLVTVSSASTKGPSVFPLAPSSKSTSGGTAALGCLVKDYFPEPVTVSWNSGALTSGVHTFPAVLQSSGLYSLSSVVTVPSSSLGTQTYICNVNHKPSNTKVDKKVEPKSCDKTHTCPPCPAPELLGPSVFLFPPKPKDTLMISRTPEVTCVVVDVSHEDPEVKFNWYVDGVEVHNAKTKPREEQYNSTYRVVSVLTVLHQDWLNGKEYKCKVSNKALPAPIEKTISKAKGQPREPQVYTLPPSREEMTKNQVSLTCLVKGFYPSDIAVEWESNGQPENNYKTTPPVLDSDGSFFLYSKLTVDKSRWQQGNVFSCSVMHEALHNHYTQKSLSLSPGK
light: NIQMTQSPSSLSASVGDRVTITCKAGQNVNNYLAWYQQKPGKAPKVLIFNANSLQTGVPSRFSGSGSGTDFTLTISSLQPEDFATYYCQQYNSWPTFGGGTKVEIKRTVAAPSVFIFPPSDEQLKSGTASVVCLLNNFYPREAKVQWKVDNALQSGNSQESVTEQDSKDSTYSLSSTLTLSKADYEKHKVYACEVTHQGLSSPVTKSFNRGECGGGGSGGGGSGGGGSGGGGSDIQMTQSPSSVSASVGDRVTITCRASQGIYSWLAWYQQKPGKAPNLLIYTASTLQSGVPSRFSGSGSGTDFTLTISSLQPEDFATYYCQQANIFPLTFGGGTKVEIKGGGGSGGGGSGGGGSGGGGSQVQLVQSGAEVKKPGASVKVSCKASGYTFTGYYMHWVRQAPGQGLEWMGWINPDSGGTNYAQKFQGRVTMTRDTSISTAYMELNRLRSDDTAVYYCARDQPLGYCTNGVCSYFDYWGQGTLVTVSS
notes: Ly516 HC (IgG1 mutated Fc) + Ly516 LC-Ly253 scFv VL-VH

binding result [1]: binds | binding result [2]: binds | binding result [3]: binds | binding result [4]: binds
B2: Ly520 (bispecific antibody, human IgG1, kappa)
heavy: B1 heavy
light: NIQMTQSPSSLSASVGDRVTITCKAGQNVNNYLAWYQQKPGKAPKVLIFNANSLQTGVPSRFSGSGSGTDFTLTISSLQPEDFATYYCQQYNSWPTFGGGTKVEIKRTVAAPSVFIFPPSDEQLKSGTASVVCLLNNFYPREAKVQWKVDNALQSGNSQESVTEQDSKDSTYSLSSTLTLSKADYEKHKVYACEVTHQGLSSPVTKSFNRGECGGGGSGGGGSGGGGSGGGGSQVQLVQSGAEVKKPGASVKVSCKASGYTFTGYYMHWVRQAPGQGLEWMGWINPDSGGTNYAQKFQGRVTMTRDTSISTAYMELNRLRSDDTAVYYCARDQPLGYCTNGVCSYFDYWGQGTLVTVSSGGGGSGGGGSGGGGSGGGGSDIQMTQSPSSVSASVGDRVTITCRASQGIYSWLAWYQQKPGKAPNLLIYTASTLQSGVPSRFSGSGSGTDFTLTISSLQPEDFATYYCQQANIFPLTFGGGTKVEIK
notes: Ly516 HC (IgG1 mutated Fc) + Ly516 LC-Ly253 scFv VH-VL

binding result [1]: binds | binding result [2]: binds | binding result [3]: binds | binding result [4]: binds
B4: Ly606 (bispecific antibody, human IgG1, kappa)
heavy: QVTLKESGPALVKPTQTLTLTCTFSGFSLSTSGTCVSWIRQPPGKALEWLATICWEDSKGYNPSLKSRLTISKDTSKNQAVLTMTNMDPVDTATYYCARREDSGYFWFPYWGQGTLVTVSSASTKGPSVFPLAPSSKSTSGGTAALGCLVKDYFPEPVTVSWNSGALTSGVHTFPAVLQSSGLYSLSSVVTVPSSSLGTQTYICNVNHKPSNTKVDKKVEPKSCDKTHTCPPCPAPELLGPSVFLFPPKPKDTLMISRTPEVTCVVVDVSHEDPEVKFNWYVDGVEVHNAKTKPREEQYNSTYRVVSVLTVLHQDWLNGKEYKCKVSNKALPAPIEKTISKAKGQPREPQVYTLPPSREEMTKNQVSLTCLVKGFYPSDIAVEWESNGQPENNYKTTPPVLDSDGSFFLYSKLTVDKSRWQQGNVFSCSVMHEALHNHYTQKSLSLSPGGGGGSGGGGSGGGGSGGGGSDIQMTQSPSSLSASVGDRVTITCKASQNIYIYLNWYQQKPGKAPKLLIYNTNNLQTGVPSRFSGSGSGTDFTLTISSLQPEDFATYYCLQHSSRRTFGGGTKVEIKGGGGSGGGGSGGGGSGGGGSQVQLVESGGGLVQPGGSLKLSCATSGFNFNDYFMNWVRQASGKGLEWVGQIRNKNYNYATYYTESLEGRVTISRDDSKNTAYLQMNSLKTEDTAVYYCTSYYYDGFADYFDYWGQGTTVTVSS
light: B3 light
notes: Ly516 HC (IgG1 mutated Fc)-TM740 scFv VL-VH + Ly516 LC

binding result [1]: binds | binding result [2]: binds | binding result [3]: binds | binding result [4]: binds
B5: Ly607 (bispecific antibody, human IgG1, kappa)
heavy: QVTLKESGPALVKPTQTLTLTCTFSGFSLSTSGTCVSWIRQPPGKALEWLATICWEDSKGYNPSLKSRLTISKDTSKNQAVLTMTNMDPVDTATYYCARREDSGYFWFPYWGQGTLVTVSSASTKGPSVFPLAPSSKSTSGGTAALGCLVKDYFPEPVTVSWNSGALTSGVHTFPAVLQSSGLYSLSSVVTVPSSSLGTQTYICNVNHKPSNTKVDKKVEPKSCDKTHTCPPCPAPELLGPSVFLFPPKPKDTLMISRTPEVTCVVVDVSHEDPEVKFNWYVDGVEVHNAKTKPREEQYNSTYRVVSVLTVLHQDWLNGKEYKCKVSNKALPAPIEKTISKAKGQPREPQVYTLPPSREEMTKNQVSLTCLVKGFYPSDIAVEWESNGQPENNYKTTPPVLDSDGSFFLYSKLTVDKSRWQQGNVFSCSVMHEALHNHYTQKSLSLSPGGGGGSGGGGSGGGGSGGGGSQVQLVESGGGLVQPGGSLKLSCATSGFNFNDYFMNWVRQASGKGLEWVGQIRNKNYNYATYYTESLEGRVTISRDDSKNTAYLQMNSLKTEDTAVYYCTSYYYDGFADYFDYWGQGTTVTVSSGGGGSGGGGSGGGGSGGGGSDIQMTQSPSSLSASVGDRVTITCKASQNIYIYLNWYQQKPGKAPKLLIYNTNNLQTGVPSRFSGSGSGTDFTLTISSLQPEDFATYYCLQHSSRRTFGGGTKVEIK
light: B3 light
notes: Ly516 HC (IgG1 mutated Fc)-TM740 scFv VH-VL + Ly516 LC

binding result [5]: binds | binding result [4]: binds
B7: Ly616 (bispecific antibody, human IgG1, kappa)
heavy: QVQLQQPGAELVKPGASVKLSCKASGYTFTSYWMHWVKQRPGQGLEWIGMIHPNSGGTNYNEKFKGKGTLTVDKSSSTAYMQLSSLTSDDSAVYYCVTSQATWFAYWGQGTLVTVSAASTKGPSVFPLAPSSKSTSGGTAALGCLVKDYFPEPVTVSWNSGALTSGVHTFPAVLQSSGLYSLSSVVTVPSSSLGTQTYICNVNHKPSNTKVDKKVEPKSCDKTHTCPPCPAPELLGPSVFLFPPKPKDTLMISRTPEVTCVVVDVSHEDPEVKFNWYVDGVEVHNAKTKPREEQYNSTYRVVSVLTVLHQDWLNGKEYKCKVSNKALPAPIEKTISKAKGQPREPQVYTLPPSREEMTKNQVSLTCLVKGFYPSDIAVEWESNGQPENNYKTTPPVLDSDGSFFLYSKLTVDKSRWQQGNVFSCSVMHEALHNHYTQKSLSLSPGGGGGSGGGGSGGGGSGGGGSDIQMTQSPSSLSASVGDRVTITCLASEDISNDLAWYQQKPGKAPKLLIYFVDRLLDGVPSRFSGSGSGTDFTLTISSLQPEDFATYYCQQSYKYPPTFGQGTKLEIKGGGGSGGGGSGGGGSGGGGSEVQLVESGGGLVQPGGSLRLSCAASGFTFTNYGLHWVRQAPGKGLEWVSSISPSGGVTYYRDSVKGRFTISRDNSKNTLYLQMNSLRAEDTAVYYCAKPFLGWGGANWIAHWGQGTLVTVSS
light: B8 light
notes: Ly387 HC (IgG1 mutated Fc)-TM559 scFv VL-VH + Ly387 LC
